Assay results reported in doi:10.1101/2024.04.12.589225.

Tests used:
[1] = target: 2nd_AtGDH-ΔT262-A263 (Aspergillus terreus); assay: crystal structure
[2] = target: 2nd_AtGDH-ΔT262-A263 (Aspergillus terreus); assay: SEC
[3] = target: 7th_AtGDH-R246S (Aspergillus terreus); assay: crystal structure
[4] = target: 7th_AtGDH-R246S (Aspergillus terreus); assay: SEC
[5] = target: 8th_AtGDH-A216Q (Aspergillus terreus); assay: SEC
[6] = target: AnGDH-Q216A (Aspergillus niger); assay: SEC
[7] = target: AnGDH-S246R (Aspergillus niger); assay: SEC
[8] = target: Aspergillus niger glutamate dehydrogenase, wild type (Aspergillus niger); assay: cryo-EM structure
[9] = target: Aspergillus terreus glutamate dehydrogenase, wild type (Aspergillus terreus); assay: cryo-EM structure
[10] = target: Aspergillus terreus glutamate dehydrogenase, wild type (Aspergillus terreus); assay: crystal structure

## 2nd_AtGDH-ΔT262-A263 (enzyme)
[1]
  stoichiometry N: 6
[2]
  stoichiometry N: 6

## 7th_AtGDH-R246S (enzyme)
[3]
  stoichiometry N: 6
[4]
  stoichiometry N: 6

## 8th_AtGDH-A216Q (enzyme)
[5]
  stoichiometry N: 6

## AnGDH-Q216A (enzyme)
[6]
  stoichiometry N: 6

## AnGDH-S246R (enzyme)
[7]
  stoichiometry N: 6

## Aspergillus niger glutamate dehydrogenase, wild type (enzyme)
[8]
  stoichiometry N: 6

## Aspergillus terreus glutamate dehydrogenase, wild type (enzyme)
[9]
  stoichiometry N: 6
[10]
  stoichiometry N: 6
